Experimental data reported in the supplement of paper PMC12455559.

Test: purified protein yield per well (BCA); higher = higher soluble expression
In short: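 Values under 25 ug (0.1 mg/mL) are below the detection threshold. Purified protein yield per well was quantified with the Pierce Rapid Gold BCA kit after candidate enzymes, expressed in E. coli C41(DE3), were captured on Ni-charged magnetic beads and released by SUMO protease on an OT-2 robot. Cultures were 2 mL autoinduction with 100 µg/mL kanamycin, run 2 h at 37 °C and then 40 h at 18 °C.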

Purified protein yield per well, < 25 µg:
DSQNPYERGPVPTLESITAESGPFAIGSVTVPAGSGQGFNSGTVYYPTDTSKGTFGAIAIMPGFLASQSDIAWYGPRLASHGFVVMTLNTSALWDFPADRSRQQLAALTYLTAQSTVKNRIDPGRLAVMGWSMGGGGSLQSAASTPSLKAAIPLAPWDLSNVSSRITVPTMIFGADGDTVASVDDFARPFYNGLANAPDKSLIVLKGTDHFTFAKPNTTIARYSVSWLKRFVDNDTRYDQFLCPTPNDPNTVVLQITCPL [DP028]
DSTSDQHGPDPTKASIEAERGPFDVARVTVPRAGASGFGGGTIYYPSSTEEGKFGAVAIAPGFTASQSSMAWFGPRLASQGFVVFTIDTVTTSDQPDMRGDELRAALRYLTGSSKVKDRIDADRLAVMGHSMGGGGTLEAAKDDPALRAAIPLTPWDLNKNFSRVKTPTMIIGGQSDTIAPVASHSEPFYRSLPDTASKAYLELRGASHFAPNMPNTTIAEYSISWLKRFVDDDRRYDQFLCPAPGASVQISQYLSTCPY [TEP166]
EENPYARGPAPTNASIEADRGSFQTATEKVPAGQGFGGGTIHYPTDTGQGTFGAIAIAPGFFETESAIAWYGPRLASQGFVVITFSTKSTWDTPDLRSDQLLAALRYVTDKSQAKDRVDPGRLAVMGHSMGGGGSLIAAQKAPTLKAAIPLTGWNPNTVFSDLKVPTFVVSAQNDFIAPDGSHSRPFYQSLPESLDKAYLLLAGAGHMAPTKPNVTIAKYSLSWLKRFVDEDTRYDQFLCPLPANDPKIAVYRGTCPLG [TEP064]
ENPHERGPDPTEESVTAPTGPFDTDTENVSSLVSGFGGGTIYYPTDDSEGTFGGVVVAPGYTASESSMSWYGERIASQGFVVFTIDTNTRYDQPNSRGRQMESALDYLVEDSDVDDMVDGDRLALMGHSMGGGGTLAAAEDRPELRAAIPLTPWHLSKDWSDVEVPTMIVGAENDSIASTRSHAVPLYESLDEDLDSTYLELRNATHFAPNISNTTIAKYSISWLKRFVDDDVRYEQFLCPAPDTGFGTDFSDYRDSCPHGGSV [DP041]
EPYASIVIVPGYGMIEASIQDWGPFFASWGIIAMTIGTNNPYDFPEERVEALLDAIETIKQENDRINSPIYEKVDLNSFAVSGWSMGGGGAQLAAVIEPTLKAVIALCPWLDNWVLEPDDLNHSVPTLIFSGQYDVNAPPYLHANIHYNYTPSTTDKLLFEVEYGDHYVANGPDGGSGYVGDRAHEWINNYLLGD [TEP055]
FDPPNGAVIMVPGFRGTPPVYDWWGPMLASVGVITMIIETNTPEDSLEARKNAFIAGVEFLSGENDNPASPIRDKLDTSNIAIMGHSLGGGASLRAAEELGSRIKAVIPLTPYCCELGQSFEGNLSGVSVPTLIIASAEDAIAPPAEHARMLYDSVNAATEKVYLEFATGNHMLPSNSGQDLETLGTYVYAFIKENFTDNPRYADFIFGDGEEQFSTYEISQ [TEP136]
FGAVAISPGFTAAWSSLSWLGPRLASHGFVVIGIETNSRLDQPASRGDQLLAALDWAVNQSPAASRIDRNRLAVAGHSMGGGGTLEAAKDRPSLKAAIPIAPWNLDKTWPEIRTPTLILGGENDLIAPVASHAEPFYNSIPASAEKAYLELDNESHFFPQFSNTIMAKYMISWLKRFVDNDTRYDQFLCP [TEP090]
FGGGTIYYPTSTADGTFGAVVISPGFTAYESSIAWLGPRLASQGFVVFTIDTNTTLDQPDSRGRQLLAALDYLTQRSSVRTRVDATRLGVMGHSMGGGGSLEAAKSRPSLKAAIPLTGWNTDKTWPELRTPTLVVGADGDSIAPVATHSEPFYESLPGSLDKAYLELRGASHFTP [TEP045]
FNPGSGGGSGGANTCETNCGFERGPDPTLSGLRSGTGPYSVSTVDVPYGSAGFGGGTIHYPTNTSGGKMGAIAVIPGFVSPESSIGWWGPALASQGFVVLTMGTQTPLDSPSARARQLTAGLDHLVEQSNSSSSAISGLVDPSRVAMVGWSMGGGGTLKNAAGDRLSAAIPLAPFDMDMSSYKNIETPTMILGCESDIIAAADLFAVPSYEHIPESTDKAYFEFAGQGHWCANGNNDNNELLSILGVSWMKRYLDKDTRYDQFLCGTNHSSNSAFSQVRDTCN [DP064]
FPAVVLAVSKQPHTDTRALTDEIKTALREIEPSLPAEITVNAELFQMKRFIDTGVWNVGEALAIGAVVVQPTGAGAQTGEFRKGPDPTEASVRASSGTFTTTTASVSSLVAGFGGGTIHYPTDTSQGTYGAIAFAPGFTASSASYSWIGPRIASQGFVVFLINTDSRYDFPASRATQLQNALNYLVNSSVAASRIDLNRLAVG [TEP030]
FRSRGATIFYPEEPSHPLASIVIVPGWSSSERSIRAWGPFLASHGMVTMTIGTNNPPRDFPEQRAAALLDAIATLRAENARDTSPIFEKLDLSRIAVGGWSMGGGGAQLAAVQDPALKAAIGLCPWHEAPDIFEHTVPLLIIGGEKDRRAPFNEHGLVHYCTTPPATPKLLFEVRDAGH [TEP100]
FSAPGPSAPCSNCTRGPAPTATALKASSGPFTTAKFSVSGFLKGFGDSTVYYPTNTTGKMGAIAVIPGYLSYENSIDWWGPRLASHGFVVMTMNTETIYDQPDSRASQLSEALDYLIAQSNSSSSPIYNKVDSTRLGAIGWSMGGGGSLKLSTQRSINAIIPQAPWYLGSSAFSGIKTPALILACSADTVAPVAQHASPFYNQIPNSTPKAFLEIYGGSHFCANSGYPNQSMLGMYGIAWMKRFIDFDSRYSQFLCGPNHESDLAISDYRQNCPY [ESM044]
FSFTPPPEPNPDPDPTPPCEVDCDFTRGPDPSSSYLEAASGPYSVNTINVSSSVSGFGGGTVYYPTGTSGLMGAISIAPGFFAAESSIGWWGPRLASHGFVVITIATNSIFDGTDSRATQLDRALDYVINQSNSGSSAISGMVDSNRVGAMGWSMGGGGSLILGSGTRLSAVIPLAPWESGSNNFDQMTAPTLIIACENDGTAPVASHASPFYNTIPGTTDKAFLEINGGGHSCANGGGVNG [ESM098]
FTASQSSIQWYGPLLAGEGFVVITIDTNTIFDQPDSRATQLLAALDYLTGSSDVRHIVDPNRLAVAGWSMGGGGSLEAAVRRPSLKAAIPLAGWHTTKTFNTAVPTLVVACENDAVAGNAQHSGPFYDGLPASTPKAYLEIAGGDHTCVGSYDINIATPVVAWAKRWVNGDTSASAQLCPPKPIGGPISDSKANCPY [ESM171]
FTPSPDPTPDPEPTPEPCQGDCDFTRGPDPSISYLEADNGPYTVRTIDVPSSAGSFNGGTIHYPSGTSGTMGAIAVASGFLAPEGDIIWWGPRLASHGFVVITISTPTFDGEDRRATQLSEALDYVIAQSNSNGSDISGMVDGSRLGAMGWSMGGGGTLQLASGTRLSAAIPLAPWNSGSNNFDQIETPTLIIACENDGTAAVGTHASPFYHSIPASTDKAFLEINGGGHSCANGGGTNGGLLGKYGVSWMKLFMDDDSRYSQFLCGPNHAANSAISEYRDTCNY [DP049]
GAAGNPYERGPDPTESSIEAPRGHYAVSETSVSALGVTGFGGGTIYYPTSTADGTFGAVAIAPGYTSLQSSIAWLGPRLASQGFVVITIDTRTTLDQPAGRGAQLLAALDYLTRRSSVRNRIDSGRLGVMGHSMGGGGSLEAAKGRPSLQAAIPLTGWNLDKTWPEIRVPTLLVGADGDTIAPVATHSQPFYQSLPSTLDRAYLELNNATHFTPNRPDTTIAKYSVSWLKRFIDNDTRYEQFLCPLPRPSRTIEEYRGNCPHTS [TEP007]
GASAPAANPYERGPAPTEQALLAPLGSFTYSTVVVPRSQVTGFGGGTIYYPDDTSQGTYGGVVAVPGFVSPEGAVAWLGPHMASRGFVVFTIATTSPFDQPTARGKQLLAALDHLTQRTPDAVRKRLDPARLAVTGHSMGGGGALYASGARPGIKAAIPLAPYNQDKTWNEVATPTLVVGGSADQIASVDKHARPFYNSLTGARDRGLLNVAAADHGDFTQENSITGRYAAAWLKRFVDEDTRYDQYLCPATGGPGVTEYSASCPLS [TEP151]
GFGGGMIYYPTDTSQGTFGGIAISPGYTAQFSVELSWMGPWLASHGFVVIGIETNSPTDFDQARGTQLLAALDYLTQQSPVRTRVDASRLAVAGHSMGGGGALNAAIRRPSLKATVGITPFLPSSNLANDHVPTMLIAGQADTVVSTSSVINQYNSLPATTKSVFLEVAGGDHGFMVGRPNTVMVRTMLPFLKIFVDNDSRYSKFLCPLMDSSGITQYRST [ESM170]
GGGGGGGGGGNSGDLPAPNPCTANCGFEIGPNPSLSFLRNGPGPLPVSTTTVPRSVDGFGGGTIYYPSNVSREMAAITISPGFTARQGGVAWWGSALASHGFVVMTIDTNSRFDQPASRGRQLDSALSYLISESDRRNSPISGLVDESRLATMGHSMGGGGSLHSASRNRISAAMPLAPWNQSGSGAFNNINVPTMILACESDTTARVGTHAIPFYNRIPNSTDKVYLEINNGNHSCSTGRSGNDRALLRTYGVSWMKRFLDKDGRYNQFLCGPNHTANSSISDFRDTCVF [DP063]
GPFAVSSVTVPAGSGPGFNDGTIYYPTDTSQGTFGAVVIMPGFVAVQGQIAWYGPRLASQGFVVMTMDSNALWDFPSDRSRQQLAALNYLTTKSPVKSRIDPNRLALMGWSMGGGGTLESAAANPSLKAAIPLAPWDITNPGDQISVPTMIFGADGDTVAPVSTFTRPAYDALTNTHDKAFVELKGADHFTFASPNTTVAKYSISWLKRFVDNDTRYDQFLCPIPN [TEP056]
GPGMEGNPYQRGPAPTTASIEAPTGAFAVSNASVPGGNGFGGGTLTYPTDTSQGTFGAVVVTPGFLSPEMKWYGPRLASQGFVVLTIATNTAVDQPGARAAQMLAALRYLVEQSPVKNRVDGSRLAVMGHSMGGGGSLEAAEAYPALKAAIPLEPWDLGKSFSAVRTPTLIVGGQSDWIAPVGQHAVPFYNSIPAGVNKAYIELAGGSHFVPMSPNVTIAKYSIAWLKRFVDNDTRYDQFLCPVPQAAALSVSKGTCPHT [TEP175]
GPTDFQRGPAPTEQSITAERGPFATAQTTVDGPNFNKGTAYYPTDTSQGTFGAVAISPGFASPEAVVSWYGPRLASQGFVVLTLETNSGSDLPDSRATQLVNALDFLVQSSSVKDRIDPNRLAVMGHSMGGGGSLKASELRPSLKAAIPLMPWNNDKTWQGDRVPTMIMGAQNDAIASPASHAKPFYDSLTSAPEKAYLELRSEGHLVAVSPNVTIAKYSIAWLKRFVDEDVRYEQFLCPAPTANLQISEYRNTCPTG [DP025]
GPYQVAYYSSYPPVPEFSAATIYFPANKGEDFAGVAISPGFVESQENMSWWGRHLASHGFAVLTLDTNELRDNPSLRADALMAAIEVLRNEGDRMGSTLRGKILKDRMAIMGHSMGGGGTLIAANAHSADLKAAIPFTPWQPDGDFSTISIPTLVIAGENDRIAVMDIHGASLSTIHHEGDEGV [TEP125]
